# T1: FRMPD1, Q5SYB0
# T1 sequence (Q5SYB0 52-145, limits assumed, looked up): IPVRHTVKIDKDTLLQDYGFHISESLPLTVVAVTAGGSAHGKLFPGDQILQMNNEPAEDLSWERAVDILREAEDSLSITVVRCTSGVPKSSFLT
# T2: MPDZ_5, O75970
# T2 sequence (O75970 695-796, limits assumed, looked up): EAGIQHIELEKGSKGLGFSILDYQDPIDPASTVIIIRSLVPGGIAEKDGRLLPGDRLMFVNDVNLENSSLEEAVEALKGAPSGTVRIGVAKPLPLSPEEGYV
# T3: GRIP1_2, Q9Y3R0
# T3 sequence (Q9Y3R0 145-248, limits assumed, looked up): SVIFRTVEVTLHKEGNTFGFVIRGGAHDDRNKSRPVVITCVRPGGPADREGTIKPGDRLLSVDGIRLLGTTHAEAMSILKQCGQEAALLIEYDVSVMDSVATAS
# T4: MPDZ_12, O75970
# T4 sequence (O75970 1857-1958, limits assumed, looked up): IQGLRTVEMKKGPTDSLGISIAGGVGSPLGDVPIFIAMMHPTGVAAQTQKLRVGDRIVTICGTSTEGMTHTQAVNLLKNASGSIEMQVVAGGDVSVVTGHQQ
# T5: DFNB31_3, Q9P202
# T5 sequence (Q9P202 811-907, limits assumed, looked up): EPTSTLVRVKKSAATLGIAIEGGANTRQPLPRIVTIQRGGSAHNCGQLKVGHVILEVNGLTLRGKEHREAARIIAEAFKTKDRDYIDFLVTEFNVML
# T6: PDZD2_2, O15018
# T6 sequence (O15018 329-429, limits assumed, looked up): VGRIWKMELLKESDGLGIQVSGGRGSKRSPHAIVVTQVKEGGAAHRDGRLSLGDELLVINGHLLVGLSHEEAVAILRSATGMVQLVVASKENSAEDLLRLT
# T7: APBA2_1, Q99767
# T7 sequence (Q99767 563-664, limits assumed, looked up): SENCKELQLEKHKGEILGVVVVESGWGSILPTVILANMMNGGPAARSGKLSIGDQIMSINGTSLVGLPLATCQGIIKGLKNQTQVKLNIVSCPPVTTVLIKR
# T8: PTPN13_1, Q12923
# T8 sequence (Q12923 1088-1188, limits assumed, looked up): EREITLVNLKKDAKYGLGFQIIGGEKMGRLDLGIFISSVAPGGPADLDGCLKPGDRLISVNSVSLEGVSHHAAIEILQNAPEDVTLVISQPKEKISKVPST
# T9: RAPGEF6, Q8TEU7
# T9 sequence (Q8TEU7 525-625, limits assumed, looked up): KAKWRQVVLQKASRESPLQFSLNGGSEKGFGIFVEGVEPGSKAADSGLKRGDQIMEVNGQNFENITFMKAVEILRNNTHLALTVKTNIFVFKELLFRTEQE
# T10: DLG3_3, Q92796
# T10 sequence (Q92796 374-475, limits assumed, looked up): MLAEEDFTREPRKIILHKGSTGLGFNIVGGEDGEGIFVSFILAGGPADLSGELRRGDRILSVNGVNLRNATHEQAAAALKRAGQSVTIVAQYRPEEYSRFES
# T11: RHPN1, Q8TCX5
# T11 sequence (Q8TCX5 508-602, limits assumed, looked up): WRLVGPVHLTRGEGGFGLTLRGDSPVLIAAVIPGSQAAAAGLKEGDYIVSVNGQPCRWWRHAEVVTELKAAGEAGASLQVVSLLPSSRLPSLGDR
# T12: LNX2_3, Q8N448
# T12 sequence (Q8N448 463-564, limits assumed, looked up): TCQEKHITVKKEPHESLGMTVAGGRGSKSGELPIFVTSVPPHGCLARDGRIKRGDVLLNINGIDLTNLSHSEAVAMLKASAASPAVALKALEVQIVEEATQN
# B1: TMEM151B, Q8IW70 (peptide)
# chain: RHGSCVETSL
# B2: MYOZ1, Q9NP98 (peptide)
# chain: IPLDGETEEL
# B3: JAG1, P78504 (peptide)
# chain: QSLNRMEYIV
# Target: MAGI2_2, Q86UL8
# Assay: holdup assay
# Parameters: key: below the threshold = too weak to quantify, mostly under pKd 3.1 to 4
# Conditions: plain residues with an end cap or a label only (N-terminal biotin on a linker: ado-ado)
# MAGI2_2, Q86UL8, sequence (Q86UL8 410-522): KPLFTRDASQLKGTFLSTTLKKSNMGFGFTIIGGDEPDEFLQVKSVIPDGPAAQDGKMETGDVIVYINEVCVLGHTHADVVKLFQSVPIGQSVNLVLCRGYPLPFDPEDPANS
row,pKd,Binder
1,3.66,B1
2,below the threshold,B2
3,3.91,B3

# Target: T1, FRMPD1, Q5SYB0
# Assay: holdup assay
# Parameters: key: below the threshold = too weak to quantify, mostly under pKd 3.1 to 4
# Conditions: plain residues with an end cap or a label only (N-terminal biotin on a linker: ado-ado)
row,pKd,Binder
1,below the threshold,B1
2,below the threshold,B2
3,below the threshold,B3

# Target: FRMPD2_3, Q68DX3
# Assay: holdup assay
# Parameters: key: below the threshold = too weak to quantify, mostly under pKd 3.1 to 4
# Conditions: plain residues with an end cap or a label only (N-terminal biotin on a linker: ado-ado)
# FRMPD2_3, Q68DX3, sequence (Q68DX3 1073-1166): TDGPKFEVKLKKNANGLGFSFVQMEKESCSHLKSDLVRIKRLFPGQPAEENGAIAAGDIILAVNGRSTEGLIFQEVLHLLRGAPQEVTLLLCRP
row,pKd,Binder
1,below the threshold,B1
2,below the threshold,B2
3,4.36,B3

# Target: T2, MPDZ_5, O75970
# Assay: holdup assay
# Parameters: key: below the threshold = too weak to quantify, mostly under pKd 3.1 to 4
# Conditions: plain residues with an end cap or a label only (N-terminal biotin on a linker: ado-ado)
row,pKd,Binder
1,below the threshold,B1
2,below the threshold,B2
3,4.07,B3

# Target: T3, GRIP1_2, Q9Y3R0
# Assay: holdup assay
# Parameters: key: below the threshold = too weak to quantify, mostly under pKd 3.1 to 4
# Conditions: plain residues with an end cap or a label only (N-terminal biotin on a linker: ado-ado)
row,pKd,Binder
1,below the threshold,B1
2,below the threshold,B2
3,below the threshold,B3

# Target: T4, MPDZ_12, O75970
# Assay: holdup assay
# Parameters: key: below the threshold = too weak to quantify, mostly under pKd 3.1 to 4
# Conditions: plain residues with an end cap or a label only (N-terminal biotin on a linker: ado-ado)
row,pKd,Binder
1,below the threshold,B1
2,below the threshold,B2
3,below the threshold,B3

# Target: LNX1_2, Q8TBB1
# Assay: holdup assay
# Parameters: key: below the threshold = too weak to quantify, mostly under pKd 3.1 to 4
# Conditions: plain residues with an end cap or a label only (N-terminal biotin on a linker: ado-ado)
# LNX1_2, Q8TBB1, sequence (Q8TBB1 371-470): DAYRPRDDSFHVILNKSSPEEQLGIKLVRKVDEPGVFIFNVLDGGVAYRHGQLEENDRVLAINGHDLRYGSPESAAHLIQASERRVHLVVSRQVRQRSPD
row,pKd,Binder
1,below the threshold,B1
2,below the threshold,B2
3,4.51,B3

# Target: AHNAK1, Q09666
# Assay: holdup assay
# Parameters: key: below the threshold = too weak to quantify, mostly under pKd 3.1 to 4
# Conditions: plain residues with an end cap or a label only (N-terminal biotin on a linker: ado-ado)
# AHNAK1, Q09666, sequence (Q09666 4-100): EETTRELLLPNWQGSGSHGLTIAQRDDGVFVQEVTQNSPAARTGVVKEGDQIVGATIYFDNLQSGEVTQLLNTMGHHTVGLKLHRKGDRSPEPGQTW
row,pKd,Binder
1,below the threshold,B1
2,below the threshold,B2
3,below the threshold,B3

# Target: NOS1, P29475
# Assay: holdup assay
# Parameters: key: below the threshold = too weak to quantify, mostly under pKd 3.1 to 4
# Conditions: plain residues with an end cap or a label only (N-terminal biotin on a linker: ado-ado)
# NOS1, P29475, sequence (P29475 9-101): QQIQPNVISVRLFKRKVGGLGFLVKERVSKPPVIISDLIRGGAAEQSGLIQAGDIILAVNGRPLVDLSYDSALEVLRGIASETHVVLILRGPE
row,pKd,Binder
1,3.84,B1
2,below the threshold,B2
3,3.54,B3

# Target: HTRA2, O43464
# Assay: holdup assay
# Parameters: key: below the threshold = too weak to quantify, mostly under pKd 3.1 to 4
# Conditions: plain residues with an end cap or a label only (N-terminal biotin on a linker: ado-ado)
# HTRA2, O43464, sequence (O43464 355-458): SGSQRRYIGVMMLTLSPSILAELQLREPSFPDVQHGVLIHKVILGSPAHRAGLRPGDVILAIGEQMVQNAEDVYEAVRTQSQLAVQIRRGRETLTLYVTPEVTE
row,pKd,Binder
1,below the threshold,B1
2,below the threshold,B2
3,3.88,B3

# Target: T5, DFNB31_3, Q9P202
# Assay: holdup assay
# Parameters: key: below the threshold = too weak to quantify, mostly under pKd 3.1 to 4
# Conditions: plain residues with an end cap or a label only (N-terminal biotin on a linker: ado-ado)
row,pKd,Binder
1,below the threshold,B1
2,below the threshold,B2
3,3.86,B3

# Target: T6, PDZD2_2, O15018
# Assay: holdup assay
# Parameters: key: below the threshold = too weak to quantify, mostly under pKd 3.1 to 4
# Conditions: plain residues with an end cap or a label only (N-terminal biotin on a linker: ado-ado)
row,pKd,Binder
1,3.56,B1
2,below the threshold,B2
3,below the threshold,B3

# Target: T7, APBA2_1, Q99767
# Assay: holdup assay
# Parameters: key: below the threshold = too weak to quantify, mostly under pKd 3.1 to 4
# Conditions: plain residues with an end cap or a label only (N-terminal biotin on a linker: ado-ado)
row,pKd,Binder
1,below the threshold,B1
2,below the threshold,B2
3,below the threshold,B3

# Target: SNX27, Q96L92
# Assay: holdup assay
# Parameters: key: below the threshold = too weak to quantify, mostly under pKd 3.1 to 4
# Conditions: plain residues with an end cap or a label only (N-terminal biotin on a linker: ado-ado)
row,pKd,Binder
1,5.55,B1
2,3.69,B2
3,below the threshold,B3

# Target: T8, PTPN13_1, Q12923
# Assay: holdup assay
# Parameters: key: below the threshold = too weak to quantify, mostly under pKd 3.1 to 4
# Conditions: plain residues with an end cap or a label only (N-terminal biotin on a linker: ado-ado)
row,pKd,Binder
1,below the threshold,B1
2,below the threshold,B2
3,below the threshold,B3

# Target: NHERF4_1, Q86UT5-2
# Assay: holdup assay
# Parameters: key: below the threshold = too weak to quantify, mostly under pKd 3.1 to 4
# Conditions: plain residues with an end cap or a label only (N-terminal biotin on a linker: ado-ado)
# NHERF4_1, Q86UT5-2, sequence (Q86UT5 other isoform, or with tags, fused parts or gaps): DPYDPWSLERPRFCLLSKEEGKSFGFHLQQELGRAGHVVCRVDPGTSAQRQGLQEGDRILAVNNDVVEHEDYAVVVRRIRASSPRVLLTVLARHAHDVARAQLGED
row,pKd,Binder
1,4.51,B1
2,4.2,B2
3,below the threshold,B3

# Target: GRIP2_3, Q9C0E4
# Assay: holdup assay
# Parameters: key: below the threshold = too weak to quantify, mostly under pKd 3.1 to 4
# Conditions: plain residues with an end cap or a label only (N-terminal biotin on a linker: ado-ado)
# GRIP2_3, Q9C0E4, sequence (Q9C0E4 238-339): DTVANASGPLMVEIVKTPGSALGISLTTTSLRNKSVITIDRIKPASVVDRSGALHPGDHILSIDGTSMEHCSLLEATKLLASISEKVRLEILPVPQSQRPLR
row,pKd,Binder
1,below the threshold,B1
2,below the threshold,B2
3,below the threshold,B3

# Target: Inadl_8, Q8NI35
# Assay: holdup assay
# Parameters: key: below the threshold = too weak to quantify, mostly under pKd 3.1 to 4
# Conditions: plain residues with an end cap or a label only (N-terminal biotin on a linker: ado-ado)
# Inadl_8, Q8NI35, sequence (Q8NI35 1425-1530): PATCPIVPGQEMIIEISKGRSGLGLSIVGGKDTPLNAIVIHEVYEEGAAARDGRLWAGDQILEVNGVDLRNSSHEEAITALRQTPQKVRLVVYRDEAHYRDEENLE
row,pKd,Binder
1,below the threshold,B1
2,below the threshold,B2
3,below the threshold,B3

# Target: T9, RAPGEF6, Q8TEU7
# Assay: holdup assay
# Parameters: key: below the threshold = too weak to quantify, mostly under pKd 3.1 to 4
# Conditions: plain residues with an end cap or a label only (N-terminal biotin on a linker: ado-ado)
row,pKd,Binder
1,below the threshold,B1
2,below the threshold,B2
3,below the threshold,B3

# Target: T10, DLG3_3, Q92796
# Assay: holdup assay
# Parameters: key: below the threshold = too weak to quantify, mostly under pKd 3.1 to 4
# Conditions: plain residues with an end cap or a label only (N-terminal biotin on a linker: ado-ado)
row,pKd,Binder
1,4.2,B1
2,below the threshold,B2
3,below the threshold,B3

# Target: DLG2_2, Q15700
# Assay: holdup assay
# Parameters: key: below the threshold = too weak to quantify, mostly under pKd 3.1 to 4
# Conditions: plain residues with an end cap or a label only (N-terminal biotin on a linker: ado-ado)
# DLG2_2, Q15700, sequence (Q15700 189-283): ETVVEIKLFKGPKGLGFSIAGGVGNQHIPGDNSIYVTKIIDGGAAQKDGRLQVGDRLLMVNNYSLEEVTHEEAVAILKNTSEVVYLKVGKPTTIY
row,pKd,Binder
1,4.32,B1
2,below the threshold,B2
3,below the threshold,B3

# Target: T11, RHPN1, Q8TCX5
# Assay: holdup assay
# Parameters: key: below the threshold = too weak to quantify, mostly under pKd 3.1 to 4
# Conditions: plain residues with an end cap or a label only (N-terminal biotin on a linker: ado-ado)
row,pKd,Binder
1,5.02,B1
2,below the threshold,B2
3,below the threshold,B3

# Target: T12, LNX2_3, Q8N448
# Assay: holdup assay
# Parameters: key: below the threshold = too weak to quantify, mostly under pKd 3.1 to 4
# Conditions: plain residues with an end cap or a label only (N-terminal biotin on a linker: ado-ado)
row,pKd,Binder
1,below the threshold,B1
2,below the threshold,B2
3,below the threshold,B3

# Target: GRIP2_7, Q9C0E4
# Assay: holdup assay
# Parameters: key: below the threshold = too weak to quantify, mostly under pKd 3.1 to 4
# Conditions: plain residues with an end cap or a label only (N-terminal biotin on a linker: ado-ado)
# GRIP2_7, Q9C0E4, sequence (Q9C0E4 934-1023): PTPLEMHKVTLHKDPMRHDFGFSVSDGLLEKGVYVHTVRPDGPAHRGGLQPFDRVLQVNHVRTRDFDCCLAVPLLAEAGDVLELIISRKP
row,pKd,Binder
1,below the threshold,B1
2,below the threshold,B2
3,4.33,B3
